Laboratory results from paper PMC12338438.

What was measured:
Experiment in all cases: fluorescence dot blot
[1] = molecular target: T1, PBP2a (penicillin binding protein 2a), recombinant soluble (Staphylococcus aureus (MRSA)?, UniProt Q7DHH4 25-668)
T1 sequence: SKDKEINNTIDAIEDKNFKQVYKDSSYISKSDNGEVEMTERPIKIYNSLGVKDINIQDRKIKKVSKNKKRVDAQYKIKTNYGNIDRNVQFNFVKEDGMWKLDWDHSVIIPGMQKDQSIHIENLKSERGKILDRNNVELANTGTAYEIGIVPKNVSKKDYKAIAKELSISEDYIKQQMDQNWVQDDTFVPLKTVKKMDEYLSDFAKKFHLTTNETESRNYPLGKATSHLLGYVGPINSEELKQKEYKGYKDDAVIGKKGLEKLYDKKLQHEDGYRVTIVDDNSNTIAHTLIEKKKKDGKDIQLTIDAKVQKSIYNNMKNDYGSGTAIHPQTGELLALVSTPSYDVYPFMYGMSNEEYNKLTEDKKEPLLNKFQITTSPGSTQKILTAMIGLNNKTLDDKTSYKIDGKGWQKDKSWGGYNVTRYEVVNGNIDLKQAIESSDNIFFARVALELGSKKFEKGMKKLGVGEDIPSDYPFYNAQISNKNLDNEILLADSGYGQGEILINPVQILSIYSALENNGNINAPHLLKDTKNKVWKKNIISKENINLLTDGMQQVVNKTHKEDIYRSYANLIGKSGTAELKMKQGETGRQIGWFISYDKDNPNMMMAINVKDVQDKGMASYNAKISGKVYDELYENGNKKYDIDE

[2] = molecular target: myeloperoxidase (MPO) (UniProt P05164;P05164 165-273;279-745)
myeloperoxidase (MPO), sequence (P05164 165-273, chain 1 of 2): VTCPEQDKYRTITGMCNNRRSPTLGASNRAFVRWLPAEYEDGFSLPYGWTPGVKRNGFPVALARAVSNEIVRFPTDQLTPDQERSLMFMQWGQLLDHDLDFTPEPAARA
myeloperoxidase (MPO), sequence (P05164 279-745, chain 2 of 2): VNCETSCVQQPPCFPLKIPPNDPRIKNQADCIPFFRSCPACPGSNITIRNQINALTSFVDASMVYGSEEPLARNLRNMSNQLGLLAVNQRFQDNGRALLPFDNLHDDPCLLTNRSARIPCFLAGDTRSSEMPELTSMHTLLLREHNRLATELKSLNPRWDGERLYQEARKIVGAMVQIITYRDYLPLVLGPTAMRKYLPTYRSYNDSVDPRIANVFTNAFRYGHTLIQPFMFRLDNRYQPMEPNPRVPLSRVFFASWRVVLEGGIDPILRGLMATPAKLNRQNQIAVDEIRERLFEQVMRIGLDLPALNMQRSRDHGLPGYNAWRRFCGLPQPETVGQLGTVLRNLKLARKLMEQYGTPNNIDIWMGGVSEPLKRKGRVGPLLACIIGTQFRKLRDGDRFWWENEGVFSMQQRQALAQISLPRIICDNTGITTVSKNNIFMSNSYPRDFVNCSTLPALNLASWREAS

[3] = molecular target: thrombin (UniProt P00734;P00734 328-363;364-622)

B1: PBP2a-Apt1T1 (ssDNA)
DNA: ATGCCATCCTACCAACCCGGTGTTCGTGTGGGTGTAGAGGGGGCGAAGGATGGC
For B1, the Kd [1] was 58 ± 11 nM, the binding result [2] was “no binding” and the binding result [3] was “no binding”.
